Data published in US20240382610A1 (TALLAC THERAPEUTICS, published 2024).

T1: Human nectin-4 ECD-6His (TNT-175) (human, UniProt Q96NY8 32-349)
T1 construct: the entry holds the extracellular domain with the C-terminal 6His tag
T1 sequence: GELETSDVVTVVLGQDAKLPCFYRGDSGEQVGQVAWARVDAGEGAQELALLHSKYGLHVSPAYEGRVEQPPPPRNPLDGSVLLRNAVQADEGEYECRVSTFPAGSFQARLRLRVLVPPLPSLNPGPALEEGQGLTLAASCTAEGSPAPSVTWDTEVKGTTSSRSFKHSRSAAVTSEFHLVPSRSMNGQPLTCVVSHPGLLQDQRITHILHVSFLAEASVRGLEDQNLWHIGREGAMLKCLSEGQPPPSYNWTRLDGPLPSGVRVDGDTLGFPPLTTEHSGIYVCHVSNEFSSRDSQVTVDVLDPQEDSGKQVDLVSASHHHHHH

T2: human nectin-4 on cells (human, UniProt Q96NY8 32-510)
T2 construct: whole, on cells; also called PVRL4
T2 sequence (looked up): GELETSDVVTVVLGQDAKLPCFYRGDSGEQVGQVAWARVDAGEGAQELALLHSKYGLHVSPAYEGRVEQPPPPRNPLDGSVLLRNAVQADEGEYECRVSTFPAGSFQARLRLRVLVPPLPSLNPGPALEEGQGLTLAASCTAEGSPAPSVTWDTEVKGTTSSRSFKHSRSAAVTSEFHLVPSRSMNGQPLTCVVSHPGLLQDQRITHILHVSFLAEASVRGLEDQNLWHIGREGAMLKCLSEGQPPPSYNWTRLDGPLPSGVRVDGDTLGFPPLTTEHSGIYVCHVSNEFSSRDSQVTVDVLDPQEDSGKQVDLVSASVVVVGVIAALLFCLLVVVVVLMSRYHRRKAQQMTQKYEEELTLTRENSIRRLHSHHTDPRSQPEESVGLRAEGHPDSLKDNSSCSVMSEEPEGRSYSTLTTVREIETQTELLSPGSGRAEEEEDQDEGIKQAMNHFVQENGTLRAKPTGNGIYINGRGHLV


Legend:
[1] = molecular target: T1, Human nectin-4 ECD-6His (TNT-175); test: competition ELISA; nectin-4 ECD premixed with TNT206, captured by the coat antibody; % of signal without premix antibody
Experimental: (§1) Competition experiments of nectin-4 antibodies. ELISA plates were coated overnight at 4° C. with goat anti-mouse IgG at […] in PBS. […] As positive control, nectin-4 was diluted at same concentrations without a premix antibody. Two wells per plate were allocated for diluent only as negative/background control. Plates were washed as previously, 50 μL/well of premix was added to each plate and incubated for one hour. Plates were washed then incubated at room temperature for one hour with Rabbit anti 6× HIS HRP diluted 1:4,000 in diluent. Plates were washed once more and incubated at room temperature for 20 minutes with 50 μL/well of ABTS substrate. […] Binding was measured as an Optical Density (O.D.) value normalized to background and calculated as a percentage of positive control at the lowest nectin-4 dilution for greatest resolution.

human nectin-4 on cells = molecular target: T2, human nectin-4 on cells; test: flow cytometry MFI, MNK74 (nectin-4 positive) over AGS (negative)
Experimental: Cell binding of nectin-4 antibodies. Cell binding of the nectin-4 antibodies was also assessed. MNK74 (nectin-4 positive) and AGS (nectin-4 negative) cells were obtained from ATCC and cultured according to their protocols. Cells were detached with TrypLE (Gibco) and washed by centrifugation for five minutes at 400×g with FACS buffer (PBS+2% FBS). Cells were resuspended in FACS buffer, plated in 96-well format (0.25 e6/well) then pelleted by centrifugation for five minutes at 400×g. Cells were stained at 4° C. in Fixable Viability Dye eFluor 506 (eBioscience) diluted 1:4,000 in PBS. […] Cells were centrifuged, washed once in FACS buffer and stained at 4° C. with Goat F(ab′)₂ anti-Mouse IgG APC (Southern Biotech) diluted 1:400 in FACS buffer for 30 minutes or appropriate anti-human IgG. Cells were centrifuged, washed twice and fixed in 0.5% paraformaldehyde. Cells were analyzed on Attune NxT Flow Cytometer (Thermo Fisher), with subsequent data analysis by Flowjo 10.7 (BD). Dead cells were excluded by gating on the eFluor 506-negative population. […] Binding was assessed by median fluorescent intensity.

[2] = molecular target: T1, Human nectin-4 ECD-6His (TNT-175); test: competition ELISA; nectin-4 ECD premixed with TNT210, captured by the coat antibody; % of signal without premix antibody
Experimental: as §1

[3] = molecular target: T1, Human nectin-4 ECD-6His (TNT-175); test: competition ELISA; nectin-4 ECD premixed with TNT204, captured by the coat antibody; % of signal without premix antibody
Experimental: as §1

[4] = molecular target: T1, Human nectin-4 ECD-6His (TNT-175); test: competition ELISA; nectin-4 ECD premixed with TNT202, captured by the coat antibody; % of signal without premix antibody
Experimental: as §1

[5] = molecular target: T1, Human nectin-4 ECD-6His (TNT-175); test: competition ELISA; nectin-4 ECD premixed with TNT212, captured by the coat antibody; % of signal without premix antibody
Experimental: as §1

[6] = molecular target: T1, Human nectin-4 ECD-6His (TNT-175); test: SPR ProteOn, mAb on protein A
Experimental: Initial testing of binding of nectin-4 antibodies to nectin-4. […] Biotinylated protein A (15 μg/mL) was immobilized to the surface of an NLC chip. 30 nM of purified mAb supernatant was diluted in PBS-T and captured over the protein A surface. Serial dilutions of human nectin-4 were injected over the mAb-coated chips, and binding kinetics were determined. Chips were regenerated using 4:1 v/v of IgG elution butter/4M NaCl.

[7] = molecular target: T1, Human nectin-4 ECD-6His (TNT-175); test: competition ELISA; nectin-4 ECD premixed with TNT205, captured by the coat antibody; % of signal without premix antibody
Experimental: as §1

[8] = molecular target: T1, Human nectin-4 ECD-6His (TNT-175); test: competition ELISA; nectin-4 ECD premixed with TNT211, captured by the coat antibody; % of signal without premix antibody
Experimental: as §1

[9] = molecular target: T1, Human nectin-4 ECD-6His (TNT-175); test: competition ELISA; nectin-4 ECD premixed with TNT209, captured by the coat antibody; % of signal without premix antibody
Experimental: as §1

[10] = molecular target: T1, Human nectin-4 ECD-6His (TNT-175); test: competition ELISA; nectin-4 ECD premixed with TNT207, captured by the coat antibody; % of signal without premix antibody
Experimental: as §1

[11] = molecular target: T1, Human nectin-4 ECD-6His (TNT-175); test: competition ELISA; nectin-4 ECD premixed with TNT203, captured by the coat antibody; % of signal without premix antibody
Experimental: as §1

[12] = molecular target: T1, Human nectin-4 ECD-6His (TNT-175); test: competition ELISA; nectin-4 ECD premixed with TNT201, captured by the coat antibody; % of signal without premix antibody
Experimental: as §1

[13] = molecular target: T1, Human nectin-4 ECD-6His (TNT-175); test: competition ELISA; nectin-4 ECD premixed with TNT208, captured by the coat antibody; % of signal without premix antibody
Experimental: as §1

| % of Positive [1] [%] | Fold-change of binding to MNK74 compared to control AGS (human nectin-4 on cells) [fold] | % of Positive [2] [%] | % of Positive [3] [%] | % of Positive [4] [%] | % of Positive [5] [%] | Kd [6] [nM] | koff [6] [s⁻¹] | kon [6] [M⁻¹ s⁻¹] | % of Positive [7] [%] | % of Positive [8] [%] | % of Positive [9] [%] | % of Positive [10] [%] | % of Positive [11] [%] | % of Positive [12] [%] | % of Positive [13] [%] | Binder |
| --- | --- | --- | --- | --- | --- | --- | --- | --- | --- | --- | --- | --- | --- | --- | --- | --- |
| 0.5 | 5.1 | 0.3 | 0.7 | 0.8 | 1.5 | 31.4 | 0.00831 | 265000 | 13.5 | 2.4 | 3.4 | 0.3 | 3.5 | 1.2 | 0.3 | TNT-190 (antibody, mouse IgG2a, kappa) heavy: EVQLVQSGGGLVKPGGSLRLSCAASGFTFSDYYMSWVRQAPGKGLEWVSAISGSGGSTYYADSVKGRFTISRDNSKNTLYLQMNSLRAEDTAVYYCARDEGYYYMDVWGKGTTVTVSSAKTTAPSVYPLAPVCGDTTGSSVTLGCLVKGYFPEPVTLTWNSGSLSSGVHTFPAVLQSDLYTLSSSVTVTSSTWPSQSITCNVAHPASSTKVDKKIEPRGPTIKPCPPCKCPAPNLLGGPSVFIFPPKIKDVLMISLSPIVTCVVVDVSEDDPDVQISWFVNNVEVHTAQTQTHREDYNSTLRVVSALPIQHQDWMSGKEFKCKVNNKDLPAPIERTISKPKGSVRAPQVYVLPPPEEEMTKKQVTLTCMVTDFMPEDIYVEWTNNGKTELNYKNTEPVLDSDGSYFMYSKLRVEKKNWVERNSYSCSVVHEGLHNHHTTKSFSRTPGRPQGFGPP light: EIVLTQSPATLSLSPGERATLSCRASQSVSSYLAWYQQKPGQAPRLLIYDASNRATGIPARFSGSGSGTDFTLTISSLQAEDFATYYCQQSYSTRFGGGTKVEIKRADAAPTVSIFPPSSEQLTSGGASVVCFLNNFYPKDINVKWKIDGSERQNGVLNSWTDQDSKDSTYSMSSTLTLTKDEYERHNSYTCEATHKTSTSPIVKSFNRNEC |
| 5.5 | 6 | 1.5 | 2.6 | 2.8 | 1.8 | 15.2 | 0.0245 | 1.62e+06 | 35.9 | 13.8 | 17.8 | 1.3 | 18.3 | 0.9 | 2 | TNT-196 (antibody, mouse IgG2a, kappa) heavy: EVQLVESGGGLVQPGGSLRLSCAASGFTFSDYYMSWIRQAPGKGLEWVSGISWNSGSIGYADSVKGRFTISRDNSKNTLYLQMNSLRAEDTAVYYCASSGSWYLPLDYWGQGTLVTVSSAKTTAPSVYPLAPVCGDTTGSSVTLGCLVKGYFPEPVTLTWNSGSLSSGVHTFPAVLQSDLYTLSSSVTVTSSTWPSQSITCNVAHPASSTKVDKKIEPRGPTIKPCPPCKCPAPNLLGGPSVFIFPPKIKDVLMISLSPIVTCVVVDVSEDDPDVQISWFVNNVEVHTAQTQTHREDYNSTLRVVSALPIQHQDWMSGKEFKCKVNNKDLPAPIERTISKPKGSVRAPQVYVLPPPEEEMTKKQVTLTCMVTDFMPEDIYVEWTNNGKTELNYKNTEPVLDSDGSYFMYSKLRVEKKNWVERNSYSCSVVHEGLHNHHTTKSFSRTPGRPQGFGPP light: DIQMTQSPSSLSASVGDRVTITCQASQDISNYLNWYQQKPGKVPKLLIYAASTLQSGVPSRFSGSGSGTDFTLTISSLQPEDFATYYCQQSYSTPLTFGGGTKVEIKRADAAPTVSIFPPSSEQLTSGGASVVCFLNNFYPKDINVKWKIDGSERQNGVLNSWTDQDSKDSTYSMSSTLTLTKDEYERHNSYTCEATHKTSTSPIVKSFNRNEC |
| 7.7 | 7.4 | 4 | 4.2 | 3.6 | 5.6 | 3.8 | 0.00399 | 1.05e+06 | 50 | 22.2 | 26.2 | 2.2 | 28.8 | 2.8 | 3.5 | TNT-153 (antibody, mouse IgG2a, kappa) heavy: EVQLVESGGGLVQPGGSLRLSCAASGFTFSSYNMNWVRQAPGKGLEWVSYISSSSSTIYYADSVKGRFTISRDNAKNSLSLQMNSLRDEDTAVYYCARAYYYGMDVWGQGTTVTVSSAKTTAPSVYPLAPVCGDTTGSSVTLGCLVKGYFPEPVTLTWNSGSLSSGVHTFPAVLQSDLYTLSSSVTVTSSTWPSQSITCNVAHPASSTKVDKKIEPRGPTIKPCPPCKCPAPNLLGGPSVFIFPPKIKDVLMISLSPIVTCVVVDVSEDDPDVQISWFVNNVEVHTAQTQTHREDYNSTLRVVSALPIQHQDWMSGKEFKCKVNNKDLPAPIERTISKPKGSVRAPQVYVLPPPEEEMTKKQVTLTCMVTDFMPEDIYVEWTNNGKTELNYKNTEPVLDSDGSYFMYSKLRVEKKNWVERNSYSCSVVHEGLHNHHTTKSFSRTPGLLQGG light: DIQMTQSPSSVSASVGDRVTITCRASQGISGWLAWYQQKPGKAPKFLIYAASTLQSGVPSRFSGSGSGTDFTLTISSLQPEDFATYYCQQANSFPPTFGGGTKVEIKRADAAPTVSIFPPSSEQLTSGGASVVCFLNNFYPKDINVKWKIDGSERQNGVLNSWTDQDSKDSTYSMSSTLTLTKDEYERHNSYTCEATHKTSTSPIVKSFNRNEC |
